Data: patent US20240011017A1 (Genentech, published 2024)

Tests used:
FLRT1 (in supernatants) = target: T1, FLRT1 (in supernatants) (human, UniProt Q9NZU1 49-552); experiment: cell-based immunofluorescence validation (FIG. 17): receptor in supernatants, KCP on cells
T1 sequence: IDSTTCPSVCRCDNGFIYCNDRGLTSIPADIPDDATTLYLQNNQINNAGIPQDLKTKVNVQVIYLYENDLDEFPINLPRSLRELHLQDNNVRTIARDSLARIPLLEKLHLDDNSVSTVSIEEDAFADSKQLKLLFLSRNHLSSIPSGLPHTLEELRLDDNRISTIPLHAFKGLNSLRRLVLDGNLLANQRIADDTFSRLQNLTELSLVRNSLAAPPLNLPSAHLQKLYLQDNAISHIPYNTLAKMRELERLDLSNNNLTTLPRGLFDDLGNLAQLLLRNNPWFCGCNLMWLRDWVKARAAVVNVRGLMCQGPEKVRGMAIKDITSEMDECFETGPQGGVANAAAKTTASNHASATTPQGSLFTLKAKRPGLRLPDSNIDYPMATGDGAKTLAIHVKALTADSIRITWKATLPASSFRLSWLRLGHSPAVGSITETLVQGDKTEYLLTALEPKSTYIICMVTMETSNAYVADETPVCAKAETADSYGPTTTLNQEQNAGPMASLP

FLRT2 (in supernatants) = target: T2, FLRT2 (in supernatants) (human, UniProt O43155 36-541); experiment: as above
T2 sequence: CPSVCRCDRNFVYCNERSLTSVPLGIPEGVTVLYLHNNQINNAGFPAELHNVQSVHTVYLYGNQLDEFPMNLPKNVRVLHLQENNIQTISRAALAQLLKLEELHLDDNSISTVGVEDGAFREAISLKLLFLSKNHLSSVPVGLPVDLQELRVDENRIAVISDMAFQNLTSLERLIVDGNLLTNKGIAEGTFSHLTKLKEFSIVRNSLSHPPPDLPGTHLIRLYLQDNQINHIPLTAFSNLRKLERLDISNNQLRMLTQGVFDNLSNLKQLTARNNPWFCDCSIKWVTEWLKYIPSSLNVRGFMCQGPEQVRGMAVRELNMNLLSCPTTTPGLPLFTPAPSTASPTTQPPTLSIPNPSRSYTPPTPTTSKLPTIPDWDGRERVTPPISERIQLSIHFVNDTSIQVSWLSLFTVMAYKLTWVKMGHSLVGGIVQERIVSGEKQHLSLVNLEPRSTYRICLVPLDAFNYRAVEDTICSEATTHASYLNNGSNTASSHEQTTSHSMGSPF

B1: HHV8 protein KCP expressed on cells (gD-GPI construct or full-length protein) (other)
chain: QDNEKCSQKTLIGYRLKMSRDGDIAVGETVELRCRSGYTTYARNITATCLQGGTWSEPTATCNKKSCPNPGEIQNGKVIFHGGQDALKYGANISYVCNEGYFLVGREYVRYCMIGASGQMAWSSSPPFCEKEKCHRPKIENGDFKPDKDYYEYNDAVHFECNEGYTLVGPHSIACAVNNTWTSNMPTCELAGCKFPSVTHGYPIQGFSLTYKHKQSVTFACNDGFVLRGSPTITCNVTEWDPPLPKCVLEDIDDPNNSNPGRLHPTPNEKPNGNVFQRSNYTEPPTKPEDTHTAATCDTNCEQPPKILPTSEGFNETTTSNTITKQLEDEKTTSQPNTHITSALTSMKAKGNFTNKTNNSTDLHIASTPTSQDDATPSIPSVQTPNYNTNAPTRTLTSLHIEEGPSNSTTSEKATASTLSHNSHKNDTGGIYTTLNKTTQLPSTNKPTNSQAKSSTKPRVETHNKTTSNPAISLTDSADVPQRPREPTLPPIFRPPASKNRYL
notes: also called HHV8 KCP
B1: binds (FLRT1 (in supernatants)); binds (FLRT2 (in supernatants)).
